Source: a protein production outcome set (Wang et al. 2014)

Test: label from the status in PepcDB records

Sequence	protein production
MSQWTTVCKLDDILPGTGVCALVEQQQIAVFRPRNDEQVYAISNIDPFAQASVLSRGIVAEHQDDLWVASPLKKQHFRLYDGFCLEDGAYSVAAYDTQVTNGNVQISIADSDVAVDNSQPLPLEHHHHHH	not failed
RNVWVVAELDEQGVSEASLQMLTPARRIADKLGESVVGVIAGPPGSSQLAVEMVERGADEVIVVEHERLSEYYPDVVGSVIVELSLKYKPSVILFAATARGREMAPYVANTLKTGITADCTDFDVDPKTRDVLLIRPPFSAIMLAYIRTPFRRPQIGTARPNVFPLPERQPGRQGRIVREEVEPPEPMARLVNRV	not failed
MFTLFAIQFFTTAAAVAFLLTELMGGFMLLFDWKNSGQKIMTYVAPIWEVTGTFLAMFVVETDATFAGILIPAAFAFAALLLIFLILFIVRNVAIILGEFAGSRKIFTDRQLYYIYVIATLLISVVFLAFSSAIISGNGVKIDIAGNPVDSLLSVSNAEISFNLASWLAGPGDILFVVSAALIAFGLSPVFYDVDRFSTYGVISSVIGFILGIVSFVQMGVHISPIIIIPAIIIIGVPILYRIGLAKKILTNKALFIVLLIVSIYSLYFTVYPSAMNGKLPLSQIITTGPMVIGTILTTVVGFTLLAFMLSLYVYVNYRSSRNQMTTLPK	failed
MKVPKYQLIQNDLRQQIVSGKFENGDKFYTESELTKLFNVSSITVIRAVNELVKDGYLVRQQGKGTFVSRSRKGRLVEFSDIEIFPMDKDKVTVLSCEKGNKPDILEKLNLDKNEFYYKIVRVRAAEDTPYIFHNSYIPQRYIQNPDAPLEHYQSIYQRFKLDYNIHMSEEPFVETNEIVSPCPKEVATHLKLKATEPAVLQNKTTTNSTSGEVMEYTETYKHWKYYKFEITANHR	not failed
MVIGSGVFLTRTCYLRLQPPSLVLRRRFCAATTACSVPLNGNKKKKSEKEKVIVISGPTGAGKSRLAMELAKRLNGEIISADSVQVYKGLDVGSAKPSDSDRKVVPHHLIDILHPSQDYSVGQFYDDGRQATKDILNRGRVPIVTGGTGLYLRWFMYGKPDVPKPSPEVIAEAHDMLVGFQTEYNWDAAVELVVNAGDPKASSLPRNDWYRLRRSLEILKSTGSPPSSFRIPYDSFRVNLVAPDADDFLEDGSSADISIQNIETDLDYDFLCFFLSSPRVALYRSIDFRCEDMLSGPNGVLSEARWLLDLGLLPNSNPATRAIGYRQAMEYLLQCRRYEGESSPREFYAFLNKFQTASRNFAKRQMTWFRCEPMYHWLNASKPLDSILQCIYDAYESEAEMVEIPESLRMSKDVRDSREASELKGYRSKNRHFVRREDCSSVLEWIRSEGCKSEASCVESAIA	failed
MGCVRDLTQRGMRQGAKPVRYFGERTDVSDLLAHTLQTVADILGPHGPATKAAEHSYTPNDYSIHFFLQLAVILLACRVTGWFGKKFLAQPQVVGEMIAGVVLGPSLLGLLFPDFQLSLFPKETRNILYVGAQLGVGLYMFLVGASFQAGHFKTKARSAMSVSFAGIAAPFAIAVIITPFLLKVPGLFAPTITPGAATLFMGACIALTAFPMLARIINERGLQKTSLGTLSLTAGAFDDAVSWCVLAVVLAMFGGGPGVAVLAIGGGLLWVLFVLTLGPKILAPLGRMVEREGELSAHALALVILAFCVSAFLMDAVGIHAIFGGFIMGVVMPRGLLTQELKKKVEPLVVVLLLPMFFTYSGLNTRLDMVNSLDLLLIALGILACSILAKWGACYVAARATGEDHATAMGIGALMNSRGLMELIIINIGLQKGIIGPTLFAMLVLMAIVTTMMASPLFEIVYGKKARERGELDAVPDAKRA	failed
MSNQQNVWVAYATQTQQFHIRVAFQQGMTAWQAIESSGLLTQVELPQPYHLGIFGVRCVADRLLEAGDRVEIYRPLTINPKDIRRKRAEKNPVGRFQKGNRFK	failed
MNAKPKDTVIANARIVLADRVIEQGWLALANGRVAEIGEGRAPAGAEDAGGDLIMPGLIELHTDHLEAHYVPRPKVFWNPVAAVVSYDGQLATSGITTVFDSLRVWREDGAEEVDGRAGVLAAAITTARDADLLRADHFLHLRCEIPMPSVVEEAKELIDRPDVKLMSLMDHTPGQRQFRDEGKLRDYYRGKNGGKTDAQLDELFAKRFEYQKAYAATNMREIVALAHQYNIPLASHDDTTEENVADAVRDRVSVAEFPTTLEAARGLHQAGIDILMGAPNVVRGGSHSGNIAAVDLAREGLLDILSSDYIPSSLLMAALQLPEHVPAISLPAAVRTVTKAPAEAVGLSDRGEIAVGKRADLIRVHIAGSVPVVRSVWREGGRVA	failed
TSITPSSQDICRICHCEGDDESPLITPCHCTGSLHFVHQACLQQWIKSSDTRCCELCKYEFIMETKL	not failed
MSTEDALCFTGEEYARHVREYWRGVAESDGFDSEDIRSPVVLTGLFHYDCQSGRRYPDPLLVKRYALLGLHRFNILQGTSFELDALQKFNKTMNLTSSYYITLLANEPGAIPLQKTFQVRVDERKYDTLDLTVAIARLKKDQNEAAETTKEPFVPHFCCSAVSDGVFQGPLPDWPSDDALRHDRNRFYELEKSEWQATDWISLYLELLILATDRGMFGVAQTGLPQVQILKVVIETEEENEKPLDKRLNARRAHVYITFTGLPKSPRLVEIGEHVERKAIIRRVIDDSGYLTLLGKFWSGKDTEQRSKTRQSEEKVESSQKRSRLC	failed
MSGGRAQKPRPAPLRLAKPRPSSVGPAPRGSPGARRPAMSARHAPLLAGRVRSRAPRRFPDRGGGRRRQSSPVRAMSSPAVARASPGGNREASGGPRSRNGPWEVGGGGERLERAGAESGRWELLLRRGELLALGGHLKGALEAFAAALRRGAPARPERLGSLVDCLVFSYRLRHGLRWSAAPAAGAAGLLSCLSCRGFLSEPVTVPCGHSYCRRCLRRELRARCRLCRDRLPPAAAASEGTPRPPPLAAAIADFRTSVVLNHLAEKWFPGQRERARAAGRLGELLHEGRYREALAAACDALRAEPSDLTLKIYRAESYAGLQEFKAALEDLNAVLFQLPNWPEVYFRKGKVLQDAGFLGDALQLFLQCLALDEDFAPAKLQVEKILCDLLSPENVREGLKESSWSSLPCIKSKPLGFPSVMEQPHSPAELGLKQPEERVEDAPEPVKGSLSRAQSAQAISAAAVPAREDGLKRVCSEPLLSAQGKGVLLKRKLSLLEQDVLINEDGRSKLKKQSESPSEDCMFSIAYGDIPEELIDVSDFECSLCMRLFFEPVTTPCGHSFCKNCLERCLDHAPYCPLCKESLKEYLADRRYCVTQLLEELIVKYLPDELSERKKIYDEETAELSHLTKNVPIFVCTMAYPTVPCPLHVFEPRYRLMIRRSIQTGTKQFGMCVSDTQNSFADYGCMLQIRNVHFLPDGRSVVDTVGGKRFRVLKRGMKDGYCTADIEYLEDVKIENGDEIRSLRELHDSVYSQACSWFQNLRDRFRSQILQHFGSMPEREENLQATPNGPAWCWWLLAVLPVDPRYQLSVLSMKSLEERLTKIQHILTYFSRDQSK	failed
MTATEPTEKILPSPDYVQSLARGLAVIRCFDHRNQRRTLSDVARATDLTRATARRFLLTLVELGYVATDGSAFWLTPRVLELGYSYLSSLSLPEVAQPHLEKLSHKVHESSSVSILDGADIVYVARVPVSRIMTVGITIGTRLPAYATSMGRVLLAGLPDDELDAYLEKLDIQRLTERTITARDELKAAILAVRADGICVLDQELEAGLRSMAAPIRGASGLTVAAVNISTPAARYSLEDLHSDLIPSLRVTATDIEQDLATVNR	not failed
MLRNIIRFKGFGKGTSGGFLKPVSFRVQLTRCYRYDNGPSYRRFNNGEYSQKSSFKSILLDKSSRKYLALLFGGCSLFYYTHLDKAPVSDRSRFIWVSRPLELTIGNYTYKSIWRQTQQEILPPQHPLSIKIENIFMKIVEAAYKDPSVDNSLLDGIKWEIHVVNDPTASPNAFVLPGGKVFIFSSILPICANDDGIATVLAHEFAHQLARHTAENLSKAPIYSLLGLVLYTVTGAHAINNILLDGFLRMPASRQMETEADYIGLMIMSRACFQPQESIKVWERMANFEKQMNRGGVVNMEFLSTHPASTRRIENMSKWLPKANEIYEQSDCSSMGNYYKSFFSM	failed
MRTDDSALKNLGKGRESTTLEMKHRELCSGKTIDLGKKMRRALVLDNIRVQSLQLKIKAMTSSTTEQSVSETQIPLTSGIKLESLNYIVTVELGGKNMSLIVDTGSDLTWVQCQPCRSCYNQQGPLYDPSVSSSYKTVFCNSSTCQDLVAATSNSGPCGGNNGVVKTPCEYVVSYGDGSYTRGDLASESILLGDTKLENFVFGCGRNNKGLFGGSSGLMGLGRSSVSLVSQTLKTFNGVFSYCLPSLEDGASGSLSFGNDSSVYTNSTSVSYTPLVQNPQLRSFYILNLTGASIGGVELKSSSFGRGILIDSGTVITRLPPSIYKAVKIEFLKQFSGFPTAPGYSILDTCFNLTSYEDISIPIIKMIFQGNAELEVDVTGVFYFVKPDASLVCLALASLSYENEVGIIGNYQQKNQRVIYDTTQERLGIVGENCRV	failed
MHAPDALPGCAPVSPAPGYHGAPAVAGHAPTLGVTASMSSITLFQAPPPEAIQSQIQQMVVDYITDVSAVAIAPSNPLYNLYQYGVGYEVHLYLQAMDGSRGIAVELVVATDPQAPDQVLGFTLYLPVKDDPQACAVAYMAVLQGHRRQGIARQMLQAMLARYPHAELACNVAKVGCFEALGFQLLGARGPQVLMNTRDHGSDGLLAVLDVVTIYQSVEVRQIHTYLLAQHGRKAMLEAEKKRDRQLDQMTRQAQALVRERLGEAALYRSRAPQLIN	failed
MSEDNFDDEFDGSLPSGPRHPMARRFRGYLPVVVDVETGGFNSATDALLEIAATTVGMDEKGFLFPEHTYFFRIEPFEGANIEPAALEFTGIKLDHPLRMAVQEEAALTEIFRGIRKALKANGCKRAILVGHNSSFDLGFLNAAVARTGIKRNPFHPFSSFDTATLAGLAYGQTVLAKACQAAGMEFDNREAHSARYDTEKTAELFCGIVNRWKEMGGWMDDDD	not failed
MAFSGSQAPYLSPAVPFSGTIQGGLQDGLQITVNGTVLSSSGTRFAVNFQTGFSGNDIAFHFNPRFEDGGYVVCNTRQNGSWGPEERKTHMPFQKGMPFDLCFLVQSSDFKVMVNGILFVQYFHRVPFHRVDTISVNGSVQLSYISFQNPRTVPVQPAFSTVPFSQPVCFPPRPRGRRQKPPGVWPANPAPITQTVIHTVQSAPGQMFSTPAIPPMMYPHPAYPMPFITTILGGLYPSKSILLSGTVLPSAQRFHINLCSGNHIAFHLNPRFDENAVVRNTQIDNSWGSEERSLPRKMPFVRGQSFSVWILCEAHCLKVAVDGQHLFEYYHRLRNLPTINRLEVGGDIQLTHVQT	not failed
MEPSCTQNGMKPKLKISDLSRSLGPGIMMAAAAVGGSHLVASTKAGAIYGWEMLLLILAVNLLKYPFFRAGVQYTLGTGDSIIQGYHKLGRGYLWVFLVLSAISAVVNTAALLLFSASLLGYFLPFDLSLNVLSSIVLITCITILFAGHFKALDKLSKLIMATLTIATTIALGVAFSNGAVAPTDYQGPSVWSIASIGFLVITMGWMPAPIEISSITSMWLKRQCQTQKVTPQSALFDFNVGYIGTAILAVVFLSLGALVLYGSGIEFKASGIGFSHQLVGIYAATIGEWSRYLIAVIAFFCIFGSTITVIDGYSRAVSEAQLLLQRKPLNQPKHYNSWVMIVSVLAITIVTLFISSLMSMLDFAMIMAFITTPIFAALNYILVTKTELPDELRMGAKLKALSIVGLIYLFGFLAIFVWWKWLM	failed
MPAKDVQICPIAVDTTVFRSRTWDRLKFEIEYGLQRGTTANSYLISADKIALFDPPGESFTDNFVGTLIQRLDLNSLDYVILGHVNANRAHTLKLLLSLAPQATIICSNPAAQNLEKLLADAEVNNPIQVMKGNDHLDLGRGHELTFIPTPSPRYPGQLCTYDPRTEILFTDKLFGAHVCGDQVFDEGWTIYQEDRRYYFDCLLAPAAAQVSAALNKLEAYPAQTYAPSHGPLVRYGLRELTRNYQQWLSEQQAQALEHHHHHH	failed
